In the experiment the target is human XPD, wild type (XPD-FLAG) (human, UniProt P18074 1-760). Nature of the experiment: cell-based or functional assay.

B1: human CDK activating kinase complex (CAK), wild type: MAT1 / CDK7-Strep / Cyclin H (complex)
chain 1: MDDQGCPRCKTTKYRNPSLKLMVNVCGHTLCESCVDLLFVRGAGNCPECGTPLRKSNFRVQLFEDPTVDKEVEIRKKVLKIYNKREEDFPSLREYNDFLEEVEEIVFNLTNNVDLDNTKKKMEIYQKENKDVIQKNKLKLTREQEELEEALEVERQENEQRRLFIQKEEQLQQILKRKNKQAFLDELESSDLPVALLLAQHKDRSTQLEMQLEKPKPVKPVTFSTGIKMGQHISLAPIHKLEEALYEYQPLQIETYGPHVPELEMLGRLGYLNHVRAASPQDLAGGYTSSLACHRALQDAFSGLFWQPS
chain 2: MALDVKSRAKRYEKLDFLGEGQFATVYKARDKNTNQIVAIKKIKLGHRSEAKDGINRTALREIKLLQELSHPNIIGLLDAFGHKSNISLVFDFMETDLEVIIKDNSLVLTPSHIKAYMLMTLQGLEYLHQHWILHRDLKPNNLLLDENGVLKLADFGLAKSFGSPNRAYTHQVVTRWYRAPELLFGARMYGVGVDMWAVGCILAELLLRVPFLPGDSDLDQLTRIFETLGTPTEEQWPDMCSLPDYVTFKSFPGIPLHHIFSAAGDDLLDLIQGLFLFNPCARITATQALKMKYFSNRPGPTPGCQLPRPNCPVETLKEQSNPALAIKRKRTEALEQGGLPKKLIF
chain 3: MYHNSSQKRHWTFSSEEQLARLRADANRKFRCKAVANGKVLPNDPVFLEPHEEMTLCKYYEKRLLEFCSVFKPAMPRSVVGTACMYFKRFYLNNSVMEYHPRIIMLTCAFLACKVDEFNVSSPQFVGNLRESPLGQEKALEQILEYELLLIQQLNFHLIVHNPYRPFEGFLIDLKTRYPILENPEILRKTADDFLNRIALTDAYLLYTPSQIALTAILSSASRAGITMESYLSESLMLKENRTCLSQLLDIMKSMRNLVKKYEPPRSEEVAVLKQKLERCHSAELALNVITKKRKGYEDDDYVSKKSKHEEEEWTDDDLVESL
With B1, the “in vitro transcription of TFIIH reconstituted from rIIH6, CAK and XPD, % of wild type” value was found to be 100%.

These data come from paper PMC7125077, “In TFIIH the Arch domain of XPD is mechanistically essential for transcription and DNA repair” (Nature Communications, 2020).
